Laboratory results from US20180303952A1 (CYTOMX THERAPEUTICS, published 2018).

Target: T1, human CD147 protein (adsorbed to ELISA plates) (human, UniProt P35613-2 22-205, limits assumed)
T1 construct: also called human CD147 polypeptide; Basigin
T1 sequence (looked up): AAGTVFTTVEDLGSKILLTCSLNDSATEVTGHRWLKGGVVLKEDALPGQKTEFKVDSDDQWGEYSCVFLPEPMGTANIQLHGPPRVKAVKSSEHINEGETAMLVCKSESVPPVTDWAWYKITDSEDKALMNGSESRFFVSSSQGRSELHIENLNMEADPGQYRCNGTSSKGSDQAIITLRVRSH
Assay: ELISA, human CD147 protein adsorbed to plate, anti-mouse Fc-peroxidase detection; apparent KD
Description: The antibody of the present disclosure that was assayed in this exemplary study was hu 3A11 Lc1/Hc1 (VL of SEQ ID NO: 5 and VH of SEQ ID NO: 1). Mouse anti-human CD147 monoclonal antibody 3A11 (VL of SEQ ID NO: 8 and VH of SEQ ID NO: 4) was assayed as a reference. Using a standard ELISA protocol, human CD147 protein was absorbed to ELISA plates and subsequently incubated with the indicated concentration of antibody of the present disclosure. Bound humanized antibody of the present disclosure was detected with anti-human Fab-peroxidase secondary antibody and the mouse 3A11 monoclonal antibody was detected with anti-mouse Fc-peroxidase secondary antibody, and Ultra TMB detection (Thermo Fisher Scientific).

Kd: 0.293 nM
B1: mouse anti-human CD147 monoclonal antibody 3A11 (antibody, V domains shown)
VH: EVKLEESGGGLVQPGGSMKLSCVASGFTFSNYWMNWVRQSPEKGLEWVGEIRLKSYNYATHYVESVEGRFTISRDDSKSSVYLQMNNLRAEDTGIYYCTAAGTDYWGQGTTLTVSS
VL: SIVMTQIPKILLVSAGDRVTITCKASQSVRTDVAWYQQKPGQSPKLLIYYSSNRYTGVPDRFTGSGYGTDFTFTISTVQAEDLAVYFCQQDYSSPFTFGSGTKLEIK
notes: Mouse hybridoma antibody, detected with anti-mouse Fc secondary antibody; also called Mouse 3A11; mu 3A11
